In patent publication US20240263208A1, “CYTOCHROME P450 ENZYME” (HYPHA DISCOVERY LTD., priority 2021, published 2024):
One block for each molecule: values may come before it.

Key:
Assay type in all cases: biochemical
[1] = Oxidase activity testing against propanalol; conditions: substrate Propanalol
Method in brief: (§1)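 Reconstituted recombinant P450 with ferredoxin and ferredoxin reductase was incubated with 0.1 mg/ml substrate in 100 mM potassium phosphate pH 8.0, 5 mM MgCl2 at 27° C with shaking. Reactions were started with a G6P/NADP+/G6PDH cofactor mix, run 16-20 hours, acetonitrile-quenched, and % conversion measured by UPLC-MS.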

[2] = Oxidase activity testing against clarithromycin; conditions: substrate Clarithromycin
Method in brief: as §1

[3] = Oxidase activity testing against solifenacin; conditions: substrate Solifenacin
Method in brief: as §1

[4] = Oxidase activity testing against 7-ethoxycoumarin; conditions: substrate 7-ethoxycoumarin
Method in brief: as §1

[5] = Oxidase activity testing against valsartan; conditions: substrate Valsartan
Method in brief: as §1

[6] = Oxidase activity testing, lyophilised recombinant P450/ferredoxin SeuF08/ferredoxin reductase SCF15A against ambroxide; conditions: for +16 Da (1.50 min) 253 m/z / +16 Da (1.60 min) 253 m/z / +16 Da (2.04 min) 253 m/z: oxidised ambroxide product; for +16 Da (1.50 min) 253 m/z / +16 Da (1.60 min) 253 m/z / +16 Da (2.04 min) 253 m/z / Ambroxide (2.22 min) 237 m/z: relative MS peak area; for reaction products from ambroxide (in words): products at 1.50, 1.61 and 2.04 minutes; for Ambroxide (2.22 min) 237 m/z: remaining substrate, 0.1 mg/ml ambroxide, 27° C., 16-20 hours; for Average % conversion: substrate ambroxide, relative MS peak areas
Experimental: Lyophilised material of recombinant P450, ferredoxin and ferredoxin reductase proteins was made as described in Example 4 and reconstituted in high purity water to the original volume. Biocatalysis was performed with shaking incubation at 27° C. in the following conditions: 100 mM potassium phosphate pH 8.0, 5 mM MgCl2 (both present in the reconstituted enzyme preparation) and 0.1 mg/ml substrate compound such as ambroxide (Sigma-Aldrich, UK), carbamazepine (Sigma-Aldrich, UK), diclofenac (Sigma-Aldrich, UK), tivantinib (MedChemtronica, Sweden), clarithromycin (Tokyo Chemical Industry, Japan), sclareol (Sigma-Aldrich, UK), celecoxib (LC Laboratories, USA), buparvaquone (Sigma-Aldrich, UK), BIRB796 (MedChemExpress, USA), vanoxerine (CiVentiChem, USA), valsartan (Tokyo Chemical Industry, Japan), ruxolitinib (LC Laboratories, USA), perindopril (Selleckchem, USA), solifenacin (Key Organics, UK), 7-ethoxycoumarin (Tokyo Chemical Industry, Japan), tofacitinib (LC Laboratories, USA), ebastine (Key Organics, UK), efavirenz (Key Organics, UK), propanalol (Sigma-Aldrich, UK) and tolbutamide (Key Organics, UK).
Concentrations of P450, ferredoxin and ferredoxin reductase were as extracted (Example 4). Reactions were initiated by addition of 10× stock of cofactor mixture (50 mM G6P, 10 mM NADP+, 10 UN/ml G6PDH) to provide a final volume of e.g., 10 μl to 90 μl for 100 μl total reaction volumes. After 16-20 hours, reactions were extracted with an equal volume of acetonitrile, centrifuged to remove precipitated proteins and conversion assessed by UPLC-MS analysis.
UPLC Data were Obtained as Follows: • Column: Acquity UPLC BEH Shield RP18 1.7 μm 2.1 mm i.d. 50 mm length • Solvents: H2O, B: Acetonitrile, both with 0.1% Formic acid • Flow rate: 1.0 ml/min • Detector: Waters Acquity UPLC PDA (UV-Vis detection) and Waters Acquity UPLC QDA (MS)
To confirm the identities of reaction products where known, their chromatographic retention time, mass and ultraviolet spectra were compared with those of authentic metabolite standards.
Representative results for the % conversions of ambroxide to oxidised (+16 Da) products for single point mutants at position T109 are shown in Table 2 below.

[7] = Oxidase activity testing against ebastine; conditions: substrate Ebastine
Method in brief: as §1

[8] = Oxidase activity testing against perindopril; conditions: substrate Perindopril
Method in brief: as §1

[9] = Oxidase activity testing against buparvaquone; conditions: substrate Buparvaquone
Method in brief: as §1

[10] = Oxidase activity testing against BIRB796; conditions: substrate BIRB796
Method in brief: as §1

[11] = Oxidase activity testing against efavirenz; conditions: substrate Efavirenz
Method in brief: as §1

[12] = Oxidase activity testing against vanoxerine; conditions: substrate Vanoxerine
Method in brief: as §1

[13] = Oxidase activity testing against celecoxib; conditions: substrate Celecoxib
Method in brief: as §1

[14] = Oxidase activity testing against sclareol; conditions: substrate Sclareol, UPLC-MS UV or MS peak areas
Method in brief: as §1

[15] = Oxidase activity testing against ruxolitinib; conditions: substrate Ruxolitinib
Method in brief: as §1

[16] = Oxidase activity testing against tofacitinib; conditions: substrate Tofacitinib
Method in brief: as §1

[17] = Oxidase activity testing against tolbutamide; conditions: for Average % conversion: substrate Tolbutamide
Method in brief: as §1

[18] = Oxidase activity testing against carbamazepine

B1: SeuC10M25: P450SeuC10 with T109F mutation, SEQ ID NO: 54 (protein)
chain: MKIGTTHLTRLRGLSMTELTDITGPAAQAETVAFPQDRTCPYHPPTGYDPLRDGRPLSRVTLYDGREVWLVTAQATARALLADPRLSTDRRRDGFPVPTPRFAAGRDRFLALLGLDDPEHHRQRRLLIPSFTLKRATAQRPWIQRIVDELLDAMIARGPVADLVSAFALPVPSMVICELLGVPYADHEFFEEQSRRLLRGPTGADTTDARDRLEAYLGDLIDAKAKEAEPGDGILDDLVHNRLRAGELDRSVLVSLAVILLVAGHETTANMISLGTYTLLQHPERLAELRADPSLLPAVVEELLRMLSIAEGLQRLALEDIEIDGITIRAGEGVLFSTSVINRDTAVYEDPDDLDFHRADRHHVAFGFGIHQCLGQNLARAELEIALGSLFTRLPGLRLAAPAEEIPFKPGDTVQGMLELPVTW
modifications: SeuC10M25
Average % conversion ([1]; Batch 1): 0% | Average % conversion ([2]; Batch 1): 0% | Average % conversion ([3]; Batch 1): 2.9% | Average % conversion ([4]; Batch 1): 17.5% | Average % conversion ([5]; Batch 1): 15.5% | +16 Da (1.50 min) 253 m/z [6]: 52.0% | +16 Da (1.60 min) 253 m/z [6]: 15.2% | +16 Da (2.04 min) 253 m/z [6]: 13.9% | reaction products from ambroxide (in words) [6]: highest yields of the products at 1.61 and 2.04 minutes | Ambroxide (2.22 min) 237 m/z [6]: 18.9% | Average % conversion [6]: 81.1% | Average % conversion ([7]; Batch 1): 12.7% | Average % conversion ([8]; Batch 1): 23.5% | Average % conversion ([9]; Batch 1): 19.4% | Average % conversion ([10]; Batch 1): 13.9% | Average % conversion ([11]; Batch 1): 1.5% | Average % conversion ([12]; Batch 1): 58% | Average % conversion ([13]; Batch 1): 10.4% | Average % conversion ([14]; Batch 1): 55.7% | Average % conversion ([15]; Batch 1): 79.8% | Average % conversion ([16]; Batch 1): 21.4% | Average % conversion ([17]; Batch 1): 28.2%

+16 Da (1.18 min) 253 m/z ([18]; 2-hydroxycarbamazepine, relative MS peak area): 0.0% | +16 Da (1.14 min) 253 m/z ([18]; carbamazepine epoxide, relative MS peak area): 43.6% | Parent (1.31 min) 237 m/z ([18]; remaining carbamazepine, relative MS peak area, 0.1 mg/ml, 27° C., 16-20 hours): 56.4%
B2: SeuC10: native CYP450 from Streptomyces eurythermus NRRL 2539, SEQ ID NO: 2 (protein, listed as Streptomyces eurythermus)
chain: MKIGTTHLTRLRGLSMTELTDITGPAAQAETVAFPQDRTCPYHPPTGYDPLRDGRPLSRVTLYDGREVWLVTAQATARALLADPRLSTDRRRDGFPVPTPRFAAGRDRTLALLGLDDPEHHRQRRLLIPSFTLKRATAQRPWIQRIVDELLDAMIARGPVADLVSAFALPVPSMVICELLGVPYADHEFFEEQSRRLLRGPTGADTTDARDRLEAYLGDLIDAKAKEAEPGDGILDDLVHNRLRAGELDRSVLVSLAVILLVAGHETTANMISLGTYTLLQHPERLAELRADPSLLPAVVEELLRMLSIAEGLQRLALEDIEIDGITIRAGEGVLFSTSVINRDTAVYEDPDDLDFHRADRHHVAFGFGIHQCLGQNLARAELEIALGSLFTRLPGLRLAAPAEEIPFKPGDTVQGMLELPVTW
Average % conversion ([1]; Batch 1): 0% | Average % conversion ([1]; Batch 2): 0% | Average % conversion ([2]; Batch 1): 0% | Average % conversion ([2]; Batch 2): 0% | Average % conversion ([3]; Batch 1): 5.3% | Average % conversion ([3]; Batch 2): 7.2% | Average % conversion ([4]; Batch 1): 22.9% | Average % conversion ([4]; Batch 2): 23.3% | Average % conversion ([5]; Batch 1): 20.1% | Average % conversion ([5]; Batch 2): 20.8% | +16 Da (1.50 min) 253 m/z [6]: 72.2% | +16 Da (1.60 min) 253 m/z [6]: 5.0% | +16 Da (2.04 min) 253 m/z [6]: 0.0% | reaction products from ambroxide (in words) [6]: produce the product at 1.50 as the major product | Ambroxide (2.22 min) 237 m/z [6]: 22.8% | Average % conversion [6]: 77.2% | Average % conversion ([7]; Batch 1): 8.8% | Average % conversion ([7]; Batch 2): 4.5% | Average % conversion ([8]; Batch 1): 30.9% | Average % conversion ([8]; Batch 2): 32.7% | Average % conversion ([9]; Batch 1): 23.5% | Average % conversion ([9]; Batch 2): 32.9% | Average % conversion ([10]; Batch 1): 83.1% | Average % conversion ([10]; Batch 2): 78.8% | Average % conversion ([11]; Batch 1): 0% | Average % conversion ([11]; Batch 2): 0% | Average % conversion ([12]; Batch 1): 75.8% | Average % conversion ([12]; Batch 2): 65.8% | reaction products from carbamazepine (in words) ([18]; new product at 1.18 minutes identified as 2-hydroxycarbamazepine, epoxide at 1.14 minutes): carbamazepine epoxide as the only reaction product | Average % conversion ([18]; substrate carbamazepine, relative MS peak areas): 43.6% | Average % conversion ([13]; Batch 1): 29.4% | Average % conversion ([13]; Batch 2): 22.2% | Average % conversion ([14]; Batch 1): 38.5% | Average % conversion ([14]; Batch 2): 35.5% | Average % conversion ([15]; Batch 1): 80.9% | Average % conversion ([15]; Batch 2): 98.6% | Average % conversion ([16]; Batch 1): 36.7% | Average % conversion ([16]; Batch 2): 51.6% | Average % conversion ([17]; Batch 1): 32.2% | Average % conversion ([17]; Batch 2): 37.7%

B3: SeuC10M2: P450SeuC10 with T109A mutation, SEQ ID NO: 8 (protein)
chain: MKIGTTHLTRLRGLSMTELTDITGPAAQAETVAFPQDRTCPYHPPTGYDPLRDGRPLSRVTLYDGREVWLVTAQATARALLADPRLSTDRRRDGFPVPTPRFAAGRDRALALLGLDDPEHHRQRRLLIPSFTLKRATAQRPWIQRIVDELLDAMIARGPVADLVSAFALPVPSMVICELLGVPYADHEFFEEQSRRLLRGPTGADTTDARDRLEAYLGDLIDAKAKEAEPGDGILDDLVHNRLRAGELDRSVLVSLAVILLVAGHETTANMISLGTYTLLQHPERLAELRADPSLLPAVVEELLRMLSIAEGLQRLALEDIEIDGITIRAGEGVLFSTSVINRDTAVYEDPDDLDFHRADRHHVAFGFGIHQCLGQNLARAELEIALGSLFTRLPGLRLAAPAEEIPFKPGDTVQGMLELPVTW
modifications: SeuC10M2
Average % conversion ([1]; Batch 1): 0% | Average % conversion ([2]; Batch 1): 0% | Average % conversion ([3]; Batch 1): 7.2% | Average % conversion ([4]; Batch 1): 32.4% | Average % conversion ([5]; Batch 1): 17.6% | +16 Da (1.50 min) 253 m/z [6]: 85.1% | +16 Da (1.60 min) 253 m/z [6]: 7.0% | +16 Da (2.04 min) 253 m/z [6]: 0.0% | Ambroxide (2.22 min) 237 m/z [6]: 6.8% | Average % conversion [6]: 93.2% | Average % conversion ([7]; Batch 1): 6.8% | Average % conversion ([8]; Batch 1): 30.7% | Average % conversion ([9]; Batch 1): 28.7% | Average % conversion ([10]; Batch 1): 29.5% | Average % conversion ([11]; Batch 1): 0.9% | Average % conversion ([12]; Batch 1): 87.2% | Average % conversion ([13]; Batch 1): 24.7% | Average % conversion ([14]; Batch 1): 36.5% | Average % conversion ([15]; Batch 1): 92.8% | Average % conversion ([16]; Batch 1): 47.1% | conversion of tolbutamide compared to wild-type (in words) [17]: significantly increased conversion | Average % conversion ([17]; Batch 1): 52.3%
